Source: patent US20190040142A1 (Genentech, published 2019)
Each block holds one binder with its values, some of them ahead of it.

B7: anti-KLB monoclonal antibody 2C12 (antibody, human IgG1, V domains shown)
VH: EVQLQQSGPGLVKPSQSLSLTCSVTGYSITSGYYWTWIRQFPGNKLEWMGYIKYDGGNYYNPSLRNRISITRDTSKNHFFLKFYSVTAEDTATYFCARGDYYASPYGAMDSWGQGTSVTVSS
VL: DIVMTQSPSSLSASLGDTITITCHASQDIDVWLSWYQQKPGNVPQLLISKSSILHTGVPSRFSGGGSGTGFTLTISSLQPEDIATYYCQQGLSYPFTFGSGTKLKIK
notes: hybridoma mouse IgG in the first screen; also called clone 2C12; 2C12 (human IgG1)

Experiments:
[1] = target: T1, Rat KLB (limits assumed); assay: FACS, HEK293T cells expressing human/rat KLB chimeric proteins; summary table of + and - by epitope bin
T1 construct: also called rat Klotho-beta
T1 single chain: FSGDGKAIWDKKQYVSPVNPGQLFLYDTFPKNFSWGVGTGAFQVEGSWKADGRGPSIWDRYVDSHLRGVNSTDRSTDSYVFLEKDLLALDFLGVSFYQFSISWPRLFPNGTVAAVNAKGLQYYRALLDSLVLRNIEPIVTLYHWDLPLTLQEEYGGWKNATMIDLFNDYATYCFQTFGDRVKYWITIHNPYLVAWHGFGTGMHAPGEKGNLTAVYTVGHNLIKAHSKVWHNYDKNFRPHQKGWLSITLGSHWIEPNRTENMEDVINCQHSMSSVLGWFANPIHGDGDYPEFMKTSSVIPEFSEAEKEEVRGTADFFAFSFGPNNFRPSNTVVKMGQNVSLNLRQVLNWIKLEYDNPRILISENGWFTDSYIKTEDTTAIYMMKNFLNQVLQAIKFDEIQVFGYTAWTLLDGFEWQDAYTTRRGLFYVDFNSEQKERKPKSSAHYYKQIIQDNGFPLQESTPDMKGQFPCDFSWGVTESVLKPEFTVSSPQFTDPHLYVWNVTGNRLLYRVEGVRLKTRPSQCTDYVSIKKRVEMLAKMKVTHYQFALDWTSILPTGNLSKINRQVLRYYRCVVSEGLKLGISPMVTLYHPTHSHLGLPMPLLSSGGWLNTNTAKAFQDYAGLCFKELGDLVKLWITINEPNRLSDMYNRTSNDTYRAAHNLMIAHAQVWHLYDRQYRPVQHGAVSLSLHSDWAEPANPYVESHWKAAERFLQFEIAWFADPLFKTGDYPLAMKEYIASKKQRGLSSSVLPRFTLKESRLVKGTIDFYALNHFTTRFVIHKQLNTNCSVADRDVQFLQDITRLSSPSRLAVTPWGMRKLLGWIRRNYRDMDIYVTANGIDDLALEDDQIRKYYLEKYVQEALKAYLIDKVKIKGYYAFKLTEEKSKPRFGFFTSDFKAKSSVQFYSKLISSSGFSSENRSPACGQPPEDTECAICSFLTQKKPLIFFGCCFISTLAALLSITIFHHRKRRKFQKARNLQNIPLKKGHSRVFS

[2] = target: T2, recombinant human KLB (soluble protein) (human, UniProt Q86Z14 53-997, limits assumed); assay: SPR, Biacore T200, antibody captured on Protein A chip, monomeric human KLB as analyte, 25 C; mean ± range of two experiments
T2 construct: also called monomeric human KLB; recombinant KLB
Protocol: (§1) For binding affinity determination of tcIgG and traditional IgG, surface plasmon resonance (SPR) measurements using a BIAcore T200 and ProteinA sensor chip was used and dilutions of monomeric human KLB as analyte were injected over the immobilized tcIgG or traditional IgG at 25° C. to determine monovalent affinities. Association rates (kon) and dissociation rates (koff) were calculated using a simple one-to-one Langmuir binding model. The equilibrium dissociation constant (Kd) was calculated as the ratio koff/kon.

[3] = target: T2, recombinant human KLB (soluble protein); assay: SPR (BIAcore T200), antibody captured on Protein A chip, monomeric human KLB as analyte, 25 C, 1:1 Langmuir fit
Protocol: as §1

[4] = target: human KLB/FGFR1c receptor complex on cells (human, UniProt Q86Z14 53-1044; P11362 22-822); assay: cell-based or functional assay
[5] = target: T1, Rat KLB; assay: flow cytometry, HEK293T cells transiently expressing the construct, anti-human IgG-Alexa 488
[6] = target: T3, human KLB expressed on cells (human, UniProt Q86Z14 53-1044); assay: flow cytometry, HEK293T cells transiently expressing the construct, antibody at 2 µg/ml, anti-human IgG-Alexa 488
T3 construct: also called hKLB; Klotho-beta

[7] = target: T3, human KLB expressed on cells; assay: FACS, HEK293T cells expressing human/rat KLB chimeric proteins; summary table of + and - by epitope bin
[8] = target: B7; assay: biolayer interferometry (Octet), anti-human Fc sensor -> human Ab1 -> no hKLB -> mouse Ab2
Protocol: Epitope binning experiments (FIGS. 11A-11B) were performed by BioLayer Inferometry in 8-channel or 16-channel mode using anti-mouse Fc or anti-human Fc capture biosensors on the Octet Red384 system (Pall Life Sciences, Menlo Park, Calif.). […] Epitope binning with anti-human Fc capture biosensors was done similarly.

B2: anti-KLB antibody clone 4H7 in tri-chain IgG format (antibody)
chain 1: DIVLTQSPASLAVSLGQRATISCKASQSVDYDGDSYMNWYQQKPGQPPKLLIYAASNLKSGIPARFSGSGSGTDFTLNIHPVEEEDAATYYCQQSNEDPRTFGGGTRLEIKRGGGGSGGGGSGGGGSGGGGSQVQLQQSGPELVKPGASVKLSCKASGYTFTNYDINWVRQRPGQGLEWIGWIYPRDGSAKYNAKFKGKATLTVDTSSSTAYMELHSLTSEDSAVYFCARRPLYYGSTHWYFDVWGTGTTVTVSS
chain 2: not shown
notes: VL-linker-VH-CH1-CH2-CH3 (VLfH) plus a separate CL domain disulfide-bonded to CH1; also called 4H7 tcIgG; 4H7 tcIgG1; not shown: human IgG1 heavy chain constant region (CH1-hinge-CH2-CH3); monospecific tcIgG were made by c
Kd [2]: 1.29 nM | koff [2]: 0.000427 s⁻¹ | kon [2]: 332000 M⁻¹ s⁻¹ | kon [3]: 332000 M⁻¹ s⁻¹

B3: bispecific anti-KLB antibody 12B8/2C12 (IgG format) (bispecific antibody, V domains shown)
VH 1: QIQLVQSGPELKKPGETAKISCKASGYAFSNYGMNWVKQAPGKDLKWMGWIDTDTGEATYTDDFKGRFVFSLETSASTAYLQINNLKNEDMATYFCAREEYGLFGFPYWGHGTLVTVSA
VL 1: DIQMTQSSSSFSVSLGDRVTITCKASEDIYNRLAWYQQKPGSAPRLLISAATSLETGVPSRFSGSGSGKDYTLSITSLQTEDVATYYCQQYWSNPLTFGAGTKLELK
VH 2: EVQLQQSGPGLVKPSQSLSLTCSVTGYSITSGYYWTWIRQFPGNKLEWMGYIKYDGGNYYNPSLRNRISITRDTSKNHFFLKFYSVTAEDTATYFCARGDYYASPYGAMDSWGQGTSVTVSS
VL 2: DIVMTQSPSSLSASLGDTITITCHASQDIDVWLSWYQQKPGNVPQLLISKSSILHTGVPSRFSGGGSGTGFTLTISSLQPEDIATYYCQQGLSYPFTFGSGTKLKIK
EC50 (nM), luciferase-based reporter assay [4]: 1.36 nM

B4: bispecific anti-KLB antibody 12B8/23B3 (IgG format) (bispecific antibody, V domains shown)
VH 1: QIQLVQSGPELKKPGETAKISCKASGYAFSNYGMNWVKQAPGKDLKWMGWIDTDTGEATYTDDFKGRFVFSLETSASTAYLQINNLKNEDMATYFCAREEYGLFGFPYWGHGTLVTVSA
VL 1: DIQMTQSSSSFSVSLGDRVTITCKASEDIYNRLAWYQQKPGSAPRLLISAATSLETGVPSRFSGSGSGKDYTLSITSLQTEDVATYYCQQYWSNPLTFGAGTKLELK
VH 2: EVQLQESGPGLVKPSQSLSLTCSVTGYSITSGYYWNWIRQFPGNKLEWMGYIRYDGNSNYNPFLKNRVSITRDTSKNQFFLKLNSVTTEDTATYYCTRKGAYYSSFDALDYWGQGTSVTVSS
VL 2: DIVMTQSPSSMYASLGERVTISCKASQDIRSYLSWFQQKPGKSPKTLIYRANRLVDGVPSRFSGSGSGQDYSLTITSLEFGDVGLYYCLQYDEFPLTFGAGTKLKIE
EC50 (nM), luciferase-based reporter assay [4]: 0.95 nM

B6: bispecific anti-KLB antibody 2C12/28B7 (IgG format) (bispecific antibody, V domains shown)
VH 1: EVQLQQSGPGLVKPSQSLSLTCSVTGYSITSGYYWTWIRQFPGNKLEWMGYIKYDGGNYYNPSLRNRISITRDTSKNHFFLKFYSVTAEDTATYFCARGDYYASPYGAMDSWGQGTSVTVSS
VL 1: DIVMTQSPSSLSASLGDTITITCHASQDIDVWLSWYQQKPGNVPQLLISKSSILHTGVPSRFSGGGSGTGFTLTISSLQPEDIATYYCQQGLSYPFTFGSGTKLKIK
VH 2: EVQLQQSGPELVQPGTSVKISCEASGYTFTDYYINWVKQSRGKSLEWIGDINPNNGDTTYNQKFKAKATLTVDRSSNTAYMELRSLTSEDSVVYYCARRFYSSPFDSWGQGTTLTVSS
VL 2: DIVMTQSPSSLAVSVGEKVTLSCKSGQSLLYSRNQKNYLAWYQQKPGQSPKLLISWASTRESGVPDRFTGSGSGTDFTLTISSVKTEDLAVYHCQQYYSYPYTFGGGTRLEIK
EC50 (nM), luciferase-based reporter assay [4]: 0.58 nM

Binder: B7
binding result [5]: no binding (tested: 2 µg/ml (not on the sheet)) | binding result [7]: binds

B9: bispecific anti-KLB antibody 4H7/28B7 (IgG format) (bispecific antibody, V domains shown)
VH 1: QVQLQQSGPELVKPGASVKLSCKASGYTFTNYDINWVRQRPGQGLEWIGWIYPRDGSAKYNAKFKGKATLTVDTSSSTAYMELHSLTSEDSAVYFCARRPLYYGSTHWYFDVWGTGTTVTVSS
VL 1: DIVLTQSPASLAVSLGQRATISCKASQSVDYDGDSYMNWYQQKPGQPPKLLIYAASNLKSGIPARFSGSGSGTDFTLNIHPVEEEDAATYYCQQSNEDPRTFGGGTRLEIK
VH 2: EVQLQQSGPELVQPGTSVKISCEASGYTFTDYYINWVKQSRGKSLEWIGDINPNNGDTTYNQKFKAKATLTVDRSSNTAYMELRSLTSEDSVVYYCARRFYSSPFDSWGQGTTLTVSS
VL 2: DIVMTQSPSSLAVSVGEKVTLSCKSGQSLLYSRNQKNYLAWYQQKPGQSPKLLISWASTRESGVPDRFTGSGSGTDFTLTISSVKTEDLAVYHCQQYYSYPYTFGGGTRLEIK
EC50 (nM), luciferase-based reporter assay [4]: 1.21 nM

Continued, in another order:

binding result [1]: no binding (tested: not given) | Kd [2]: 0.78 nM | koff [2]: 0.000444 s⁻¹ | kon [2]: 571000 M⁻¹ s⁻¹ | kon [3]: 571000 M⁻¹ s⁻¹
B1: anti-KLB monoclonal antibody 4H7 (antibody, IgG1, V domains shown)
VH: QVQLQQSGPELVKPGASVKLSCKASGYTFTNYDINWVRQRPGQGLEWIGWIYPRDGSAKYNAKFKGKATLTVDTSSSTAYMELHSLTSEDSAVYFCARRPLYYGSTHWYFDVWGTGTTVTVSS
VL: DIVLTQSPASLAVSLGQRATISCKASQSVDYDGDSYMNWYQQKPGQPPKLLIYAASNLKSGIPARFSGSGSGTDFTLNIHPVEEEDAATYYCQQSNEDPRTFGGGTRLEIK
notes: hybridoma mouse IgG in the first screen; also called clone 4H7; 4H7 IgG

binding result [6]: binds
B5: anti-KLB monoclonal antibody 12B8 (antibody, V domains shown)
VH: QIQLVQSGPELKKPGETAKISCKASGYAFSNYGMNWVKQAPGKDLKWMGWIDTDTGEATYTDDFKGRFVFSLETSASTAYLQINNLKNEDMATYFCAREEYGLFGFPYWGHGTLVTVSA
VL: DIQMTQSSSSFSVSLGDRVTITCKASEDIYNRLAWYQQKPGSAPRLLISAATSLETGVPSRFSGSGSGKDYTLSITSLQTEDVATYYCQQYWSNPLTFGAGTKLELK
notes: Mouse hybridoma antibody; tested as hybridoma supernatant, or recombinantly as mouse IgG2a or human IgG1, depending on the assay; also called clone 12B8; parental antibody 12B8
binding result [5]: no binding (tested: 2 µg/ml (not on the sheet))

EC50 (nM), luciferase-based reporter assay [4]: 0.63 nM
B8: bispecific anti-KLB antibody 23B3/28B7 (IgG format) (bispecific antibody, V domains shown)
VH 1: EVQLQESGPGLVKPSQSLSLTCSVTGYSITSGYYWNWIRQFPGNKLEWMGYIRYDGNSNYNPFLKNRVSITRDTSKNQFFLKLNSVTTEDTATYYCTRKGAYYSSFDALDYWGQGTSVTVSS
VL 1: DIVMTQSPSSMYASLGERVTISCKASQDIRSYLSWFQQKPGKSPKTLIYRANRLVDGVPSRFSGSGSGQDYSLTITSLEFGDVGLYYCLQYDEFPLTFGAGTKLKIE
VH 2: EVQLQQSGPELVQPGTSVKISCEASGYTFTDYYINWVKQSRGKSLEWIGDINPNNGDTTYNQKFKAKATLTVDRSSNTAYMELRSLTSEDSVVYYCARRFYSSPFDSWGQGTTLTVSS
VL 2: DIVMTQSPSSLAVSVGEKVTLSCKSGQSLLYSRNQKNYLAWYQQKPGQSPKLLISWASTRESGVPDRFTGSGSGTDFTLTISSVKTEDLAVYHCQQYYSYPYTFGGGTRLEIK

binding result [8]: no binding | binding result [7]: binds
B10: anti-KLB monoclonal antibody 23B3 (antibody, V domains shown)
VH: EVQLQESGPGLVKPSQSLSLTCSVTGYSITSGYYWNWIRQFPGNKLEWMGYIRYDGNSNYNPFLKNRVSITRDTSKNQFFLKLNSVTTEDTATYYCTRKGAYYSSFDALDYWGQGTSVTVSS
VL: DIVMTQSPSSMYASLGERVTISCKASQDIRSYLSWFQQKPGKSPKTLIYRANRLVDGVPSRFSGSGSGQDYSLTITSLEFGDVGLYYCLQYDEFPLTFGAGTKLKIE
notes: also called clone 23B3
binding result [5]: no binding (tested: 2 µg/ml (not on the sheet))
